Our source for the Kd values is article PMC3545058.

In assay [1] the target is EhRGS-RhoGEF (Entamoeba histolytica). The assay can be described thus: SPR.
The target in assay [2] is GST-EhGα1 (Entamoeba histolytica). Nature of the assay: SPR.

pKd: −log10 of the molar value.

In turn, EhGα1 (natural protein) showed a pKd in assay [1] of 5.28. Take EhGα1(Q189L) (natural protein): the pKd in assay [1] was 3.96. This pKd lies 1.32 log units lower than the previous one. Turning to EhRGS-RhoGEF (natural protein), the pKd in assay [2] was 5.24.

Substance “EhRacC(Q65L) (from UniProt Q24816 1-194) (natural protein)” gave a pKd in assay [1] of 4.47.

A word on the pKd: it is the negative decadic logarithm of the Kd, by convention in mol/L. A high value points to a small Kd.
